Data from paper PMC8190142, “Activation of PARP2/ARTD2 by DNA damage induces conformational changes relieving enzyme autoinhibition”.

Tests used:
PARP2 FL E286A [1] = molecular target: T1, PARP2 FL E286A (human (Homo sapiens), UniProt Q9UGN5 1-583, E286A); experiment: fluorescence polarization; mean and SD of 3 listed KDs (22.43, 26.3, 23.94); FP buffer, salt, pH and temperature not given (as in cited ref 17); crystallization: complex purified in 20 mM Hepes pH 7.5, 300 mM NaCl, 0.5 mM TCEP; crystals; settings: protein: recombinant; tags: His-tag construct, TEV cleaved; label: fluorescein on internal T8 of strand 2; blunt, 20 bp
PARP2 FL E286R [2] = molecular target: T2, PARP2 FL E286R (human (Homo sapiens), UniProt Q9UGN5 1-583, E286R); experiment: fluorescence polarization; mean and SD of 3 listed KDs (12.72, 25.07, 16.53); FP buffer, salt, pH and temperature not given (as in cited ref 17); crystallization: complex purified in 20 mM Hepes pH 7.5, 300 mM NaCl, 0.5 mM TCEP; crystals; settings: protein: recombinant; tags: His-tag construct, TEV cleaved; label: fluorescein on internal T8 of strand 2; blunt, 20 bp
PARP2 FL R153A [3] = molecular target: T3, PARP2 FL R153A (human (Homo sapiens), UniProt Q9UGN5 1-583, R153A); experiment: fluorescence polarization; mean and SD of 3 listed KDs (232.6, 64.05, 161.3); FP buffer, salt, pH and temperature not given (as in cited ref 17); crystallization: complex purified in 20 mM Hepes pH 7.5, 300 mM NaCl, 0.5 mM TCEP; crystals; settings: protein: recombinant; tags: His-tag construct, TEV cleaved; label: fluorescein on internal T8 of strand 2; blunt, 20 bp
PARP2 FL G338A [4] = molecular target: T4, PARP2 FL G338A (human (Homo sapiens), UniProt Q9UGN5 1-583, G338A); experiment: fluorescence polarization; mean and SD of 3 listed KDs (27.96, 29.72, 25.09); FP buffer, salt, pH and temperature not given (as in cited ref 17); crystallization: complex purified in 20 mM Hepes pH 7.5, 300 mM NaCl, 0.5 mM TCEP; crystals; settings: protein: recombinant; tags: His-tag construct, TEV cleaved; label: fluorescein on internal T8 of strand 2; blunt, 20 bp
PARP2 FL wt [5] = molecular target: T5, PARP2 FL wt (human (Homo sapiens), UniProt Q9UGN5 1-583); experiment: fluorescence polarization; mean and SD of 3 listed KDs (28.05, 21.44, 26.07); FP buffer, salt, pH and temperature not given (as in cited ref 17); crystallization: complex purified in 20 mM Hepes pH 7.5, 300 mM NaCl, 0.5 mM TCEP; crystals; settings: protein: recombinant; tags: His-tag construct, TEV cleaved; label: fluorescein on internal T8 of strand 2; blunt, 20 bp
PARP2 FL N129A [6] = molecular target: T6, PARP2 FL N129A (human (Homo sapiens), UniProt Q9UGN5 1-583, N129A); experiment: fluorescence polarization; mean and SD of 3 listed KDs (58.73, 44.74, 72.15); FP buffer, salt, pH and temperature not given (as in cited ref 17); crystallization: complex purified in 20 mM Hepes pH 7.5, 300 mM NaCl, 0.5 mM TCEP; crystals; settings: protein: recombinant; tags: His-tag construct, TEV cleaved; label: fluorescein on internal T8 of strand 2; blunt, 20 bp
PARP2 FL Y201F [7] = molecular target: T7, PARP2 FL Y201F (human (Homo sapiens), UniProt Q9UGN5 1-583, Y201F); experiment: fluorescence polarization; mean and SD of 3 listed KDs (93.24, 46.79, 151.2); FP buffer, salt, pH and temperature not given (as in cited ref 17); crystallization: complex purified in 20 mM Hepes pH 7.5, 300 mM NaCl, 0.5 mM TCEP; crystals; settings: protein: recombinant; tags: His-tag construct, TEV cleaved; label: fluorescein on internal T8 of strand 2; blunt, 20 bp
PARP2 FL E286A [8] = molecular target: T1, PARP2 FL E286A; experiment: fluorescence polarization; mean and SD of 3 listed KDs (10.42, 7.271, 6.234); FP buffer, salt, pH and temperature not given (as in cited ref 17); crystallization: complex purified in 20 mM Hepes pH 7.5, 300 mM NaCl, 0.5 mM TCEP; crystals; settings: protein: recombinant; tags: His-tag construct, TEV cleaved; label: fluorescein on internal T10; dumbbell of two hairpins (TTTT loops) with one nick
PARP2 FL G338A [9] = molecular target: T4, PARP2 FL G338A; experiment: fluorescence polarization; mean and SD of 3 listed KDs (10.62, 9.907, 6.489); FP buffer, salt, pH and temperature not given (as in cited ref 17); crystallization: complex purified in 20 mM Hepes pH 7.5, 300 mM NaCl, 0.5 mM TCEP; crystals; settings: protein: recombinant; tags: His-tag construct, TEV cleaved; label: fluorescein on internal T10; dumbbell of two hairpins (TTTT loops) with one nick
PARP2 FL wt [10] = molecular target: T5, PARP2 FL wt; experiment: fluorescence polarization; mean and SD of 3 listed KDs (10.74, 7.933, 8.182); FP buffer, salt, pH and temperature not given (as in cited ref 17); crystallization: complex purified in 20 mM Hepes pH 7.5, 300 mM NaCl, 0.5 mM TCEP; crystals; settings: protein: recombinant; tags: His-tag construct, TEV cleaved; label: fluorescein on internal T10; dumbbell of two hairpins (TTTT loops) with one nick
PARP2 FL N129A [11] = molecular target: T6, PARP2 FL N129A; experiment: fluorescence polarization; mean and SD of 3 listed KDs (14.36, 8.278, 5.785); FP buffer, salt, pH and temperature not given (as in cited ref 17); crystallization: complex purified in 20 mM Hepes pH 7.5, 300 mM NaCl, 0.5 mM TCEP; crystals; settings: protein: recombinant; tags: His-tag construct, TEV cleaved; label: fluorescein on internal T10; dumbbell of two hairpins (TTTT loops) with one nick
PARP2 FL E286R [12] = molecular target: T2, PARP2 FL E286R; experiment: fluorescence polarization; mean and SD of 3 listed KDs (18.12, 7.571, 5.497); FP buffer, salt, pH and temperature not given (as in cited ref 17); crystallization: complex purified in 20 mM Hepes pH 7.5, 300 mM NaCl, 0.5 mM TCEP; crystals; settings: protein: recombinant; tags: His-tag construct, TEV cleaved; label: fluorescein on internal T10; dumbbell of two hairpins (TTTT loops) with one nick
PARP2 FL R153A [13] = molecular target: T3, PARP2 FL R153A; experiment: fluorescence polarization; mean and SD of 3 listed KDs (20.13, 10.37, 8.203); FP buffer, salt, pH and temperature not given (as in cited ref 17); crystallization: complex purified in 20 mM Hepes pH 7.5, 300 mM NaCl, 0.5 mM TCEP; crystals; settings: protein: recombinant; tags: His-tag construct, TEV cleaved; label: fluorescein on internal T10; dumbbell of two hairpins (TTTT loops) with one nick
PARP2 FL Y201F [14] = molecular target: T7, PARP2 FL Y201F; experiment: fluorescence polarization; mean and SD of 3 listed KDs (46.26, 27.47, 48.04); FP buffer, salt, pH and temperature not given (as in cited ref 17); crystallization: complex purified in 20 mM Hepes pH 7.5, 300 mM NaCl, 0.5 mM TCEP; crystals; settings: protein: recombinant; tags: His-tag construct, TEV cleaved; label: fluorescein on internal T10; dumbbell of two hairpins (TTTT loops) with one nick
PARP2 WGR-RD-ART = PARP2 WGR-RD-ART (human (Homo sapiens), UniProt Q9UGN5 90-583); experiment: X-ray crystallography (2.8 A); FP buffer, salt, pH and temperature not given (as in cited ref 17); crystallization: complex purified in 20 mM Hepes pH 7.5, 300 mM NaCl, 0.5 mM TCEP; crystals; settings: protein: recombinant; tags: His-tag construct, TEV cleaved; chain copies: 2; blunt, 16 bp; 2 duplex copies in the biological unit
Sequence of PARP2 WGR-RD-ART (Q9UGN5 90-583): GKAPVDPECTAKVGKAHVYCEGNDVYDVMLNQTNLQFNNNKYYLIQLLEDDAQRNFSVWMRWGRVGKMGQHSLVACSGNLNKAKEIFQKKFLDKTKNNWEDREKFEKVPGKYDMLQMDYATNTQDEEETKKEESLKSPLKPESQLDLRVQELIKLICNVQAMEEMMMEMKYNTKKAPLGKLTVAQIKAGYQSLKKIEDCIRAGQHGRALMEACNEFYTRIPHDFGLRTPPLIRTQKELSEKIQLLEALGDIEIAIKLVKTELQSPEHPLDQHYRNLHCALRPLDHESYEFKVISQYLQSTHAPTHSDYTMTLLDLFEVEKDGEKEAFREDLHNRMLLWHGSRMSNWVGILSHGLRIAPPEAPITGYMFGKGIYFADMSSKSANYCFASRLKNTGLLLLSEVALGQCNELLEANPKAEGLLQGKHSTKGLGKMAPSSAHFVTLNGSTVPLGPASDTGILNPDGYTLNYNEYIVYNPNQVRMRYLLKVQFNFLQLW

T1 sequence (Q9UGN5 whole entry E286A): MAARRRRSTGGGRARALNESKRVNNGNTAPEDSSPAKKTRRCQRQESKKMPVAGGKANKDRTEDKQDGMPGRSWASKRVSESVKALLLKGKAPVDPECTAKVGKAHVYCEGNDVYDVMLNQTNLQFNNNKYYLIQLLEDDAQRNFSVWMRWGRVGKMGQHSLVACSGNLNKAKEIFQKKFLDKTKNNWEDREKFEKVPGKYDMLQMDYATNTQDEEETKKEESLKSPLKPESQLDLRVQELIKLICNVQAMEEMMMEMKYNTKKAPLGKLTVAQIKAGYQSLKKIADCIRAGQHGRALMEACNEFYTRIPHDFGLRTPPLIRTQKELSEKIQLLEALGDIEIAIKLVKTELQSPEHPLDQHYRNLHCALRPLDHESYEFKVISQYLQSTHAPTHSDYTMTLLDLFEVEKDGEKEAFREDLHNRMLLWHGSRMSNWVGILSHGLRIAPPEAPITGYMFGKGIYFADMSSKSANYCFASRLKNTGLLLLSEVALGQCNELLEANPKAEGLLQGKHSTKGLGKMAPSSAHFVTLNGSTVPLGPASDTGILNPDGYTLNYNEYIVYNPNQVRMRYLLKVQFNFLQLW
T7 sequence (Q9UGN5 whole entry Y201F): as the sequence (Q9UGN5 whole entry E286A) above, with Y201F, A286E counted along it
T4 sequence (Q9UGN5 whole entry G338A): as the sequence (Q9UGN5 whole entry E286A) above, with A286E, G338A counted along it
T6 sequence (Q9UGN5 whole entry N129A): as the sequence (Q9UGN5 whole entry E286A) above, with N129A, A286E counted along it
T5 sequence (Q9UGN5 whole entry): as the sequence (Q9UGN5 whole entry E286A) above, with A286E counted along it
T2 sequence (Q9UGN5 whole entry E286R): as the sequence (Q9UGN5 whole entry E286A) above, with A286R counted along it
T3 sequence (Q9UGN5 whole entry R153A): as the sequence (Q9UGN5 whole entry E286A) above, with R153A, A286E counted along it

B1: DNA-9 dsDNA (dsDNA)
DNA 1: GACGCAACCCGGAGAACACA
DNA 2: TGTGTTCTCCGGGTTGCGTC
modifications: 5'-phosphate on strand 1
Q: B1 was tested. Which Kd (PARP2 FL E286A [1]) did it give?
A: Its Kd is 24.2 ± 1.96 nM.

Q: What about the Kd (PARP2 FL E286R [2]) of the same binder?
A: The Kd was 18.1 ± 6.32 nM.

Q: What about the Kd (PARP2 FL R153A [3]) of the same binder?
A: Its Kd is 153 ± 84.6 nM.

Q: And the Kd (PARP2 FL G338A [4])?
A: The Kd was 27.6 ± 2.34 nM.

Q: What about the Kd (PARP2 FL wt [5]) of the same binder?
A: The Kd was 25.2 ± 3.39 nM.

Q: And the Kd (PARP2 FL N129A [6])?
A: Its Kd is 58.5 ± 13.7 nM.

Q: What about the Kd (PARP2 FL Y201F [7]) of the same binder?
A: The Kd was 97.1 ± 52.3 nM.

Q: GGAAGTCTTTTGACTTCCTCGAAGCTTTTGCTTCGA (structured_DNA, 5'-phosphate) [DNA-8 nicked dumbbell] was tested. Which Kd (PARP2 FL E286A [8]) did it give?
A: Its Kd is 7.98 ± 2.18 nM.

Q: And the Kd (PARP2 FL G338A [9])?
A: The Kd was 9.01 ± 2.21 nM.

Q: What about the Kd (PARP2 FL wt [10]) of the same binder?
A: Its Kd is 8.95 ± 1.55 nM.

Q: What about the Kd (PARP2 FL N129A [11]) of the same binder?
A: Its Kd is 9.47 ± 4.41 nM.

Q: What about the Kd (PARP2 FL E286R [12]) of the same binder?
A: Its Kd is 10.4 ± 6.77 nM.

Q: What about the Kd (PARP2 FL R153A [13]) of the same binder?
A: The Kd was 12.9 ± 6.35 nM.

Q: What about the Kd (PARP2 FL Y201F [14]) of the same binder?
A: Its Kd is 40.6 ± 11.4 nM.

B2: DNA-1 (dsDNA)
DNA 1: GACGACCCGGAGCACA
DNA 2: TGTGCTCCGGGTCGTC
modifications: 5'-phosphate on strand 1
Q: Does B2 bind (PARP2 WGR-RD-ART)?
A: Result: binds
